One data set relates to CCCCC1CCCC(=O)O1. Kind of data set: purified protein. Particulars: pH 8.3.
A further data set deals with CCCCCC1CCCC(=O)O1. Kind of data set: purified protein. Particulars: pH 8.3.

For orientation: Km means the concentration of substrate that gives half-maximal velocity. Usually kcat/Km stands for the second-order rate constant that governs catalysis at low substrate concentration. “Dr0930 (Deinococcus radiodurans R1 = ATCC 13939 = DSM 20539; Y98F)”: in the data set with CCCCC1CCCC(=O)O1, the Km was determined as 400 ± 20 µM and the kcat/Km came to 18000 ± 2000 M⁻¹ s⁻¹.

In the case of “Dr0930 (Deinococcus radiodurans R1 = ATCC 13939 = DSM 20539; Y28F)”, in the data set on CCCCC1CCCC(=O)O1, the Km is 100 ± 20 µM and the catalytic efficiency (kcat/Km) was 270000 ± 40000 M⁻¹ s⁻¹.

In the case of “Dr0930 (Deinococcus radiodurans R1 = ATCC 13939 = DSM 20539)”, in the data set on CCCCC1CCCC(=O)O1, the Michaelis constant (Km) was determined as 100 ± 20 µM and the specificity constant (kcat/Km) amounted to 420000 ± 70000 M⁻¹ s⁻¹. In the data set on CCCCCC1CCCC(=O)O1, the Km is 80 ± 10 µM and the kcat/Km worked out at 200000 ± 20000 M⁻¹ s⁻¹.

Turning to “Dr0930 (Deinococcus radiodurans R1 = ATCC 13939 = DSM 20539; Y97F)”, in the data set on CCCCC1CCCC(=O)O1, the Km was 200 ± 20 µM and the catalytic efficiency (kcat/Km) is 1700 ± 100 M⁻¹ s⁻¹.
